# Changes are numbered by the printed parent chain. In names and notes the source's numbering stands.
# T1: TNFR1 (Homo sapiens, UniProt P19438)
# T1 chain: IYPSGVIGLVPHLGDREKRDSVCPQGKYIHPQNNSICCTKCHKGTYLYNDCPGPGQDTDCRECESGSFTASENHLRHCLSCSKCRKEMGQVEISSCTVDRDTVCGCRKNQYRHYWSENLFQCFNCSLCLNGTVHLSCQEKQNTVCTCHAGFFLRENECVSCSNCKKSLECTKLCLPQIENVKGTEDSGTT
# B1: Y70I (designed binder)
# chain: SMEEEVEKAAKEYEKKKKEAIEKHLEKLKAKDKEAAERFLKELEEAAKEYAKDEAKTMSEEEAKRRAKKIKEKVLLSELSEEEQKEIKEAEEKLVRTILKYVEEAAK
# B2: K73P (designed binder)
# chain: B1 chain with I70Y, K73P
# B3: A20T (designed binder)
# chain: B1 chain with A20T, I70Y
# B4: L79P (designed binder)
# chain: B1 chain with I70Y, L79P
# B5: A10V (designed binder)
# chain: B1 chain with A10V, I70Y
# B6: A9H (designed binder)
# chain: B1 chain with A9H, I70Y
# B7: F39G (designed binder)
# chain: B1 chain with F39G, I70Y
# B8: E14D (designed binder)
# chain: B1 chain with E14D, I70Y
# B9: K100A (designed binder)
# chain: B1 chain with I70Y, K100A
# B10: E26K (designed binder)
# chain: B1 chain with E26K, I70Y
# B11: E5P (designed binder)
# chain: B1 chain with E5P, I70Y
# B12: K48A (designed binder)
# chain: B1 chain with K48A, I70Y
# B13: E89M (designed binder)
# chain: B1 chain with I70Y, E89M
# B14: E37N (designed binder)
# chain: B1 chain with E37N, I70Y
# B15: K56H (designed binder)
# chain: B1 chain with K56H, I70Y
# B16: L40C (designed binder)
# chain: B1 chain with L40C, I70Y
# B17: E37A (designed binder)
# chain: B1 chain with E37A, I70Y
# B18: A51T (designed binder)
# chain: B1 chain with A51T, I70Y
# B19: E82T (designed binder)
# chain: B1 chain with I70Y, E82T
# B20: A47Q (designed binder)
# chain: B1 chain with A47Q, I70Y
# B21: E34S (designed binder)
# chain: B1 chain with E34S, I70Y
# B22: K85Y (designed binder)
# chain: B1 chain with I70Y, K85Y
# B23: K31T (designed binder)
# chain: B1 chain with K31T, I70Y
# B24: E42Y (designed binder)
# chain: B1 chain with E42Y, I70Y
# B25: A51W (designed binder)
# chain: B1 chain with A51W, I70Y
# B26: K93W (designed binder)
# chain: B1 chain with I70Y, K93W
# B27: K64G (designed binder)
# chain: B1 chain with K64G, I70Y
# B28: K11Q (designed binder)
# chain: B1 chain with K11Q, I70Y
# B29: S77F (designed binder)
# chain: B1 chain with I70Y, S77F
# B30: K15Y (designed binder)
# chain: B1 chain with K15Y, I70Y
# B31: K48L (designed binder)
# chain: B1 chain with K48L, I70Y
# B32: E54Q (designed binder)
# chain: B1 chain with E54Q, I70Y
# B33: S59G (designed binder)
# chain: B1 chain with S59G, I70Y
# B34: A20D (designed binder)
# chain: B1 chain with A20D, I70Y
# B35: K33R (designed binder)
# chain: B1 chain with K33R, I70Y
# B36: M2V (designed binder)
# chain: B1 chain with M2V, I70Y
# B37: D32E (designed binder)
# chain: B1 chain with D32E, I70Y
# B38: I98L (designed binder)
# chain: B1 chain with I70Y, I98L
# B39: R96T (designed binder)
# chain: B1 chain with I70Y, R96T
# B40: M2T (designed binder)
# chain: B1 chain with M2T, I70Y
# B41: L28M (designed binder)
# chain: B1 chain with L28M, I70Y
# B42: K18G (designed binder)
# chain: B1 chain with K18G, I70Y
# B43: E60T (designed binder)
# chain: B1 chain with E60T, I70Y
# B44: L25M (designed binder)
# chain: B1 chain with L25M, I70Y
# B45: R65N (designed binder)
# chain: B1 chain with R65N, I70Y
# B46: S59N (designed binder)
# chain: B1 chain with S59N, I70Y
# B47: A30L (designed binder)
# chain: B1 chain with A30L, I70Y
# B48: R38K (designed binder)
# chain: B1 chain with R38K, I70Y
# B49: Y70S (designed binder)
# chain: B1 chain with I70S
# B50: S80V (designed binder)
# chain: B1 chain with I70Y, S80V
# B51: A67F (designed binder)
# chain: B1 chain with A67F, I70Y
# B52: K52D (designed binder)
# chain: B1 chain with K52D, I70Y
# B53: L79I (designed binder)
# chain: B1 chain with I70Y, L79I
# B54: E81C (designed binder)
# chain: B1 chain with I70Y, E81C
# B55: Y50L (designed binder)
# chain: B1 chain with Y50L, I70Y
# B56: E7M (designed binder)
# chain: B1 chain with E7M, I70Y
# B57: E14C (designed binder)
# chain: B1 chain with E14C, I70Y
# B58: A47C (designed binder)
# chain: B1 chain with A47C, I70Y
# B59: E83R (designed binder)
# chain: B1 chain with I70Y, E83R
# Target: T1, TNFR1
# Assay: yeast display SC50
row,Binder,apparent Kd (screen) [nM]
1,B1,20.2
2,B2,5.31
3,B3,0.718
4,B4,7.78
5,B5,0.49
6,B6,0.539
7,B7,2.73
8,B8,1.16
9,B9,1.4
10,B10,0.49
11,B11,0.446
12,B12,0.446
13,B13,1.05
14,B14,0.446
15,B15,4.83
16,B16,0.446
17,B17,0.49
18,B18,3.3
19,B19,0.49
20,B20,0.49

row,Binder,apparent Kd (screen) [nM]
1,B21,0.718
2,B22,0.446
3,B23,0.593
4,B24,6.43
5,B25,0.49
6,B26,2.73
7,B27,0.49
8,B28,0.446
9,B29,1.05
10,B30,0.446
11,B31,0.49
12,B32,10.4
13,B33,0.446
14,B34,1.16
15,B35,0.869
16,B36,0.446
17,B37,0.956
18,B38,13.8
19,B39,1.54
20,B40,0.446

row,Binder,apparent Kd (screen) [nM]
1,B41,0.956
2,B42,0.653
3,B43,1.4
4,B44,0.539
5,B45,1.4
6,B46,1.69
7,B47,0.593
8,B48,10.4
9,B49,4.83
10,B50,1.27
11,B51,18.3
12,B52,0.446
13,B53,1.86
14,B54,0.869
15,B55,0.79
16,B56,10.4
17,B57,9.41
18,B58,0.49
19,B59,0.539

# Source: PMC12416549 (2024)
